Measurements taken from patent US20150057331A1.

What was measured:
CCR5 (human) = CCR5 (human) (UniProt P51681); test: cell-based or functional assay
CD4 (human) = CD4 (human) (UniProt P01730); test: cell-based or functional assay

Substance | ATP release from primary human macrophages (luminescence assay), peak fold change against vehicle (CCR5 (human)) | ATP release from primary human macrophages (luminescence assay), peak fold change against vehicle (CD4 (human))
Monomeric gp120BaL (R5-tropic) | 1.8 fold | 1.8 fold
Monomeric gp120SF162 (R5-tropic) | 1.8 fold | 1.8 fold
